Data from the RNAGym collection of RNA variant scans (doi:10.1093/nar/gkz1192).

B1: CPEB3 Ribozyme (parent)
chain: UAACAGGGGGCCACAGCAGAAGCGUUCACGUCGCAGCCCCUGUCAGAUUCUGGUGAAUCUGCGAAUUCUGCUGUAUAUCUC

Variants of: B1
Assay: self-cleavage, relative activity (ratio to wild type); higher = more cleavage; in vitro, sequencing
Method in brief: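 Barcoded CPEB3 ribozyme mutants, produced by rounds of error-prone PCR, self-cleaved while being transcribed with T7 RNA polymerase for 5 hours at 37°C and during a subsequent 15 min DNase I step before EDTA was added. Sequencing of template-switched cDNA on Illumina gave cleaved and total reads, and DNA sequencing assigned barcodes to variants. Each variant's relative activity is its cleaved/total read fraction divided by the unmutated ribozyme's fraction, averaged across three batches. A variant needed a minimum of 5 reads.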
In the case of A2G U69A, the self-cleavage is reported as 0.33.
In the case of A2G U69G, the self-cleavage is reported as 0.46.
Variant A2G C17U has a self-cleavage of 0.56.
With A3C U60C the self-cleavage was 0.83.
A3C U69A showed a self-cleavage of 1.08.
A2G U80C gave a self-cleavage of 0.69.
A2G U80A showed a self-cleavage of 0.77.
Variant A2G U80G has a self-cleavage of 0.17.
A2U C39A showed a self-cleavage of 0.42.
In the case of A2U U48C, the self-cleavage is reported as 0.62.
Work on A2U C62U yielded a self-cleavage of 0.31.
In the case of A2U C62G, the self-cleavage is reported as 0.31.
In the case of A3C A64G, the self-cleavage is reported as 1.17.
A2U A45U showed a self-cleavage of 0.54.
With A2U A45G the self-cleavage was 0.85.
A2G A56G showed a self-cleavage of 0.5.
A2G A56U gave a self-cleavage of 0.31.
A2G U51A showed a self-cleavage of 0.64.
A2G U51C showed a self-cleavage of 0.34.
Variant A2G U51G has a self-cleavage of 0.79.
With A3C C17U the self-cleavage was 0.54.
With A2U A3U the self-cleavage was 1.04.
With A2U A3G the self-cleavage was 0.99.
For A3C U67C, the self-cleavage was 0.33.
A2G A15G showed a self-cleavage of 0.53.
With A2G A15U the self-cleavage was 0.41.
A2G G8A gave a self-cleavage of 0.3.
In the case of A2G G8U, the self-cleavage is reported as 0.11.
A2C G52A showed a self-cleavage of 1.02.
Variant A2U C50U has a self-cleavage of 0.79.
A2U A20U showed a self-cleavage of 0.41.
With A2U A20C the self-cleavage was 0.32.
For A2U A20G, the self-cleavage was 0.69.
A2U G19A showed a self-cleavage of 0.29.
For A2U U76C, the self-cleavage was 1.15.
A2U U76A showed a self-cleavage of 1.14.
With A2G G30U the self-cleavage was 0.69.
In the case of A2G G30A, the self-cleavage is reported as 0.39.
Work on A2U A77G yielded a self-cleavage of 1.04.
A2G A75U gave a self-cleavage of 0.84.
Work on A2G A75G yielded a self-cleavage of 0.54.
Variant A3G A5G has a self-cleavage of 0.76.
A3G A5U gave a self-cleavage of 1.04.
A3G A5C showed a self-cleavage of 0.71.
Variant A2G U74A has a self-cleavage of 1.07.
A2G U74G showed a self-cleavage of 1.01.
A2G U74C showed a self-cleavage of 1.12.
Work on A2G A5G yielded a self-cleavage of 0.73.
In the case of A2G A5U, the self-cleavage is reported as 0.8.
A2G A5C showed a self-cleavage of 0.94.
A2U U69A showed a self-cleavage of 0.52.
With A2G C79U the self-cleavage was 0.82.
For A2G C79A, the self-cleavage was 1.01.
For A3C U76A, the self-cleavage was 1.
A2G G36A showed a self-cleavage of 0.16.
Work on A2G G36C yielded a self-cleavage of 0.24.
In the case of A2U C34U, the self-cleavage is reported as 0.24.
In the case of A2G G61A, the self-cleavage is reported as 0.31.
Work on A2C U80A yielded a self-cleavage of 1.2.
Work on A3C A75G yielded a self-cleavage of 1.14.
A3C G33C showed a self-cleavage of 0.35.
For A2C U58A, the self-cleavage was 0.2.
A3C U49C gave a self-cleavage of 0.86.
For A3C U49A, the self-cleavage was 1.1.
For A3C C62U, the self-cleavage was 0.29.
Variant A2G A45C has a self-cleavage of 0.5.
Variant A2G A45G has a self-cleavage of 0.45.
Work on A2G A45U yielded a self-cleavage of 0.44.
For A3C A65U, the self-cleavage was 0.95.
A3C A65G gave a self-cleavage of 0.92.
In the case of A3C A77U, the self-cleavage is reported as 1.03.
For A2G A13G, the self-cleavage was 0.59.
With A2G A13U the self-cleavage was 0.91.
Work on A2U U49A yielded a self-cleavage of 0.72.
A2C G8A gave a self-cleavage of 0.1.
With A2G A20U the self-cleavage was 0.39.
For A2G A20G, the self-cleavage was 0.61.
Work on A3C U58A yielded a self-cleavage of 0.5.
Work on A3C U58C yielded a self-cleavage of 0.4.
A3C U58G gave a self-cleavage of 0.25.
For A2U U74C, the self-cleavage was 0.91.
A2G C11U gave a self-cleavage of 0.51.
Variant A2G C11G has a self-cleavage of 0.15.
